{
  "source": "patent US20160281104A1",
  "about": "(KOREA ATOMIC ENERGY RESEARCH INSTITUTE, published 2016)",
  "proteins": {"B1": {"name": "alkyl hydroperoxide reductase subunit F (AhpF) protein of Pseudomonas aeruginosa (enzyme)", "chain": "MLDANLKTQLKAYLEKVSQPFEIVASLDDSDKSRELLGLLQDIVGLTDKITLKTDGSDARKPSFSLNRPGADIGLRFAGIPMGHEFTSLVLALLQVGGHPSKLDADVIEQVKGIEGTFEFETYFSLSCQNCPDVVQALNLMAVLNPNIRHVAIDGALFQDEVEARQIMSVPSIYLNGEVFGQGRMGVEEILAKIDTGAAARDAEKLTARDAFDVLVVGGGPAGAAAAIYAARKGIRTGVAAERFGGQVLDTMAIENFISVQETEGPKLARALEEHVRHYEVDIMNLQRASKLVPAKNAGELHEVRFESGGSLKAKTLILATGARWREMGVPGEQEYKAKGVCFCPHCDGPLFKGKRVAVIGGGNSGVEAAIDLAGIVAHVTLLEFDSKLRADAVLQRKLYSLPNVEVITSALTSEVKGDGQKVTGLVYKDRNSEEFKSIELEGIFVQIGLLPNTEWLKGSVELSPRGEIIVDARGETSLPGIFAAGDVTTVPYKQIVIAVGEGAKASLSAFDHLIRTSAPE", "notes": "Recombinant protein cloned from P. aeruginosa PAO1 genomic DNA and expressed from pET28a in E. coli BL21(DE3); It was purified on Ni-NTA and released from the resin with thrombin, so the His tag was cleaved; also called PaAhpF; AhpF(PA)"}},
  "molecular_target": "the molecule itself",
  "assay": "size exclusion chromatography (Superdex 200) and native PAGE; self-association",
  "data": [
    {"protein": "B1", "values": [
      {"measurement": "binding result", "value": "binds"}
    ]}
  ]
}
